Numbering of substitutions follows the chain as printed.
T1: cyIL1RAP-His (Lake Pharma) (cynomolgus monkey, UniProt A0A2K5X5J5 21-367)
T1 construct: Bought protein (Lake Pharma, lot 16205819371); also called cynomolgus IL1RAP; monkey IL1RAP; not shown: His tag
T1 sequence: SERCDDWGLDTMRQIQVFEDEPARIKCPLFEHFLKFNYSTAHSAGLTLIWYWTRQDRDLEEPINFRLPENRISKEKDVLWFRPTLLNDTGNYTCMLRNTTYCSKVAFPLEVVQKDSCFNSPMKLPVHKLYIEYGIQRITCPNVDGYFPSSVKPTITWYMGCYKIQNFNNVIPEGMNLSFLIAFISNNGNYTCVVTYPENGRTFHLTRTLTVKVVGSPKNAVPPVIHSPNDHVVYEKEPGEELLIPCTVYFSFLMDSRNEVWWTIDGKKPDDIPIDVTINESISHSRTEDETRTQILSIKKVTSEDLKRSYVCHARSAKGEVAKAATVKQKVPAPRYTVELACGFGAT

T2: IL1RAP on HEK-Blue IL1β / HEK-Blue IL33 reporter cells (UniProt Q9NPH3 21-570, limits assumed)
T2 sequence (looked up): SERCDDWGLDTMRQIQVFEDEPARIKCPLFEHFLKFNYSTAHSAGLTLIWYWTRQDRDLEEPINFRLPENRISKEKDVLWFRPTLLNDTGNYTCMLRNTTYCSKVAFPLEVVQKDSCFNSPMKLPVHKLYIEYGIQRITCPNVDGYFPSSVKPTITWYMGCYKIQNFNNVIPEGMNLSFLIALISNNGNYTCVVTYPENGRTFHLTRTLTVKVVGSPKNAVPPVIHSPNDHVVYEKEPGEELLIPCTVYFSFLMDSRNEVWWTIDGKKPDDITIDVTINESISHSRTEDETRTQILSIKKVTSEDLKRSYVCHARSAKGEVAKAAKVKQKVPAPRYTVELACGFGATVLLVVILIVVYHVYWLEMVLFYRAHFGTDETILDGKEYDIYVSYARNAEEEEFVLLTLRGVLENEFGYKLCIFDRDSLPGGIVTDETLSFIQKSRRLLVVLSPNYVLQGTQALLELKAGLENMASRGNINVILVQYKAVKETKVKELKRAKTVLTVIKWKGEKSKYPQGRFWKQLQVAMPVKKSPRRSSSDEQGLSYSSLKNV

T3: recombinant mouse IL1RAP protein (Sino Biological, Cat #52657-M08H) (mouse, UniProt Q61730 21-359)
T3 construct: Bought protein
T3 sequence (looked up): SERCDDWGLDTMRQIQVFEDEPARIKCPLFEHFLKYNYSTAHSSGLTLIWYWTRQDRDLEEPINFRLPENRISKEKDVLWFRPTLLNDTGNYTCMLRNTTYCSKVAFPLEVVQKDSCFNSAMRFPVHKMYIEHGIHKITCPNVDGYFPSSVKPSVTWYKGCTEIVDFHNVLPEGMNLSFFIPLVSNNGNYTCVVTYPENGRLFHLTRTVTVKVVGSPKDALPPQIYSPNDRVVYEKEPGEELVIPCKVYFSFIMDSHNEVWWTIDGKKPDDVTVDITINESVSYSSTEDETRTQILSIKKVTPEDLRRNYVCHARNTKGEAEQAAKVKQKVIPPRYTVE

T4: recombinant human IL1RAP protein, extracellular domain His-tagged (Sino Biological, Cat #10121-H08H) (human, UniProt Q9NPH3 21-367)
T4 construct: extracellular domain; Bought protein; The Octet analyte is printed as huIL1RAP-His (Sino Biological, lot MB08MA1301) without a catalogue number; also called huIL1RAP-His; hIL1RAP; not shown: His tag
T4 sequence (looked up): T1 sequence with F183L, P273T, T326K

B1: STLX2005 (antibody, V domains shown)
VH: EVQLVDSGGGLVKPGGSLRLSCAATGFTFSNVWMSWVRQGSGKGLEWVGRIKSKTDGGTIDYAAPVKGRFTISRDDPKNTLYLQMNSLKTEDTAVYYCTTGELLGFDYWGQGTLVTVSS
VL: DIVMTQSPLSLPVTPGEPASISCRSGQSLLHNNGFNCLAWYLQKPGQSPQLLIYLGSNRASGVPDRFSGSGSGTDFTLKISRVEAEDVGVFYCMQTLQTPITFGQGTRLEIK
notes: Purified from hybridoma of immunized Alivamab mice; intact IgG; captured on anti-mouse IgG Fc sensors in Octet; kappa light chain; also called 74804_05B24A
B2: STLX2045 (antibody, V domains shown)
VH: B1 VH with D6E, S21A, T55A, P77S, V95M
VL: B1 VL with N32S, F91Y
notes: Purified from hybridoma of immunized Alivamab mice; intact IgG; captured on anti-mouse IgG Fc sensors in Octet; kappa light chain; also called 74804_45C18A
B3: STLX2001E (antibody, V domains shown)
VH: QVQLVQSGAEVKKPGASVKVSCKASGYTFTGYYMHWVRQAPGQGLEWMGWLNPNSGGTDYVQKFQGRVTMTRDTSISTAYMELSRLRSDDTAVYYCARTLYYYGMDVWGQGTTVTVSS
VL: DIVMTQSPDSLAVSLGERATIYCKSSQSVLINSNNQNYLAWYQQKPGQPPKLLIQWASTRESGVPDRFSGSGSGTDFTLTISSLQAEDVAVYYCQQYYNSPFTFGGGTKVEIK
notes: Purified from hybridoma of immunized Alivamab mice; intact IgG by SEC and SDS-PAGE; captured on anti-mouse IgG Fc sensors in Octet; kappa light chain; also called 74804_01E23A
B4: STLX2029 (antibody, V domains shown)
VH: QVQLLQSGAEVKKPGSSVKVSCKASGGTFSIYAIDWVRQAPGQGLEWMGGIIPIFGTANSAQKFQGRVTITADKSTSTAYMELSSLRSEDTAVYYCARNGATSDAFDMWGQGTMVTVSS
VL: EIVLTQSPGTLSLSPGERATLSCRASLSVSSNYLAWFQQRPGQAPRLLIYGVSRRATGIPDRFSGSGSGTDFTLTISRLEPEDFAVYYCQQYGSSPLTFGGGTKVEIK
notes: Purified from hybridoma of immunized Alivamab mice; intact IgG; captured on anti-mouse IgG Fc sensors in Octet; kappa light chain; also called 74804_29D13A
B5: STLX2007 (antibody, V domains shown)
VH: B4 VH with K23R, F55S, A58E, K63N, G66D, V68I, S77N, M108I
VL: B4 VL
notes: Purified from hybridoma of immunized Alivamab mice; intact IgG; captured on anti-mouse IgG Fc sensors in Octet; kappa light chain; also called 74804_07K10A
B6: STLX2051 (antibody, V domains shown)
VH: B4 VH with S30N, S77N, M108I
VL: B4 VL with L27Q
notes: Purified from hybridoma of immunized Alivamab mice; intact IgG; captured on anti-mouse IgG Fc sensors in Octet; kappa light chain; also called 74804_51C10A
B7: STLX2025 (antibody, V domains shown)
VH: QVQLVQSGAEVKKPGSSVKVSCKASGDTFSNYAITWVRQAPGQGLEWIVGFSPIFGTANYAQKFQGRVTITADKSTSTAYMELSSLISEDTAVYYCAWGSGNFNWFDPWGQGTLVTVSS
VL: AIRMTQSPSSFSASTGDRVTITCRASQGISSYLAWYQQKPGKAPKLLIYAASTLQSGVPSRFSGSGSGTDFTLTISSLQSEDFATYYCQQYYSYPLTFGGGTKVEIK
notes: Purified from hybridoma of immunized Alivamab mice; intact IgG; captured on anti-mouse IgG Fc sensors in Octet; kappa light chain; also called 74804_25H09A

Each binder was assayed against T1, cyIL1RAP-His (Lake Pharma) (assay: Octet BLI; mAb captured on anti-mouse IgG Fc sensor; cyIL1RAP-His analyte).
Method: (§1) Antibodies were diluted in kinetics buffer (0.1% BSA, 0.02% Tween-20 and 0.05% NaN₃ in PBS) and loaded onto 16 channel anti-mouse IgG Fc capture sensors (AMC, Cat #2001073; Sartorius, Göttingen, Germany). Human, huIL1RAP-His (Sino Biological, lot: MB08MA1301), and monkey, cyIL1RAP-His (Lake Pharma, NY, USA; lot:16205819371) proteins were titrated starting from the highest concentration of 100 nM and followed by 50 nM and 25 nM. Purified antibodies were loaded at 5 μg/ml in kinetics buffer. The experimental parameters selected to determine the kinetic constants were Baseline for 60 s, Loading of antibody to sensor for 180 s, Association of analyte to antibody for 120 s, Dissociation for 1200 s and Regeneration in 10 mM Glycine pH 1.7 for 4×30 s.
(§2) Regeneration cycle tracking was selected for 12 cycles. Binding to human and cynomolgus IL1RAP was measured and KD (M) kinetics were calculated. Also, the disassociation rate (Kdis) (1/s) and association rate (Kon) (1/Ms) kinetics were calculated (data not shown).

| Kd [nM] | Response | koff [s⁻¹] | kon [M⁻¹ s⁻¹] | Binder |
| --- | --- | --- | --- | --- |
| 2.1 | 0.3 | 0.000563 | 268000 | B1 |
| 0.863 | 0.277 | 0.000291 | 338000 | B2 |
| 4.54 | 0.265 | 0.000863 | 190000 | B3 |
| 1.97 | 0.327 | 0.00065 | 330000 | B4 |
| 0.751 | 0.273 | 0.000283 | 377000 | B5 |
| 1.41 | 0.265 | 0.000459 | 326000 | B6 |
| 2.09 | 0.263 | 0.000297 | 142000 | B7 |

These binders were tested against T2, IL1RAP on HEK-Blue IL1β / HEK-Blue IL33 … (assay: cell-based or functional assay).

| IC50, HEK-BlueIL33 NFκB Reporter Assay | Max % Inhibition at 200 nM, HEK-BlueIL33 NFκB Reporter Assay [%] | Binder |
| --- | --- | --- |
| 2.72e-09 M (implied; unit not printed) | 85 | B1 |
| 1.37e-09 M (implied; unit not printed) | 98 | B2 |
| 2.49e-09 M (implied; unit not printed) | 80 | B3 |
| 8.75e-09 M (implied; unit not printed) | 86 | B4 |
| 6.62e-09 M (implied; unit not printed) | 79 | B5 |
| 1.3e-08 M (implied; unit not printed) | 77 | B6 |
| 6.55e-09 M (implied; unit not printed) | 73 | B7 |

These binders were tested against T3, recombinant mouse IL1RAP protein (Sino …) (assay: cell-free ELISA, mouse IL1RAP coated; data not shown).
Method: Recombinant human or mouse IL1RAP proteins (Sino Biological, Beijing, China; Cat #10121-H08H and Sino Biological, Cat #52657-M08H respectively) were diluted in PBS, pH 7.4 at concentration of 1 μg/ml, coated on high-binding 384-well clear plates and incubated overnight at 4° C. Following, plates were washed 3× with 0.05% Tween-20 in PBS, pH 7.5 and then blocked with 1% BSA in PBS for 1 hour at room temperature. After 3× washes, wells were incubated with each antibody at the highest concentration of 100 nM followed by seven serial half log dilutions (in 1% BSA and 0.05% Tween-20 in PBS) for 1 hour at room temperature. Plates were then washed 3× and incubated with […] detection antibody (Medna, TX, USA; Cat #D8212, 0.5 μg/ml diluted in 0.02% Tween-20 in PBS). After 5× washes, Supersignal ELISA Pico substrate (Thermofisher, MA, USA; Cat #37069) was applied to wells and chemiluminescent signal was read on Sprectramax L for 200 ms/well. Similarly, detection with specific κ and λ antibodies was conducted to define light chain isotyping.

| binding result | Binder |
| --- | --- |
| no binding (tested: 100 nM) | B1 |
| no binding (tested: 100 nM) | B2 |
| no binding (tested: 100 nM) | B3 |
| no binding (tested: 100 nM) | B4 |
| no binding (tested: 100 nM) | B5 |
| no binding (tested: 100 nM) | B6 |
| no binding (tested: 100 nM) | B7 |

The binders below were run against T4, recombinant human IL1RAP protein, … (assay: Octet BLI; mAb captured on anti-mouse IgG Fc sensor; huIL1RAP-His analyte).
Method: as §1, §2

| Kd [nM] | Response | koff [s⁻¹] | kon [M⁻¹ s⁻¹] | Binder |
| --- | --- | --- | --- | --- |
| 1.67 | 0.268 | 0.000491 | 294000 | B1 |
| 0.648 | 0.261 | 0.000273 | 422000 | B2 |
| 2.34 | 0.308 | 0.000391 | 167000 | B3 |
| 1.07 | 0.291 | 0.000361 | 336000 | B4 |
| 0.596 | 0.247 | 0.000234 | 392000 | B5 |
| 0.875 | 0.237 | 0.000301 | 344000 | B6 |
| 2.18 | 0.26 | 0.000337 | 154000 | B7 |

Target: T2, IL1RAP on HEK-Blue IL1β / HEK-Blue IL33 …
Test: cell-based or functional assay
Remark: another data set of the same source

| IC50, HEK-BlueIL1β NFκB Reporter Assay | Max % Inhibition at 200 nM, HEK-BlueIL1β NFκB Reporter Assay [%] | Binder |
| --- | --- | --- |
| 4.46e-10 M (implied; unit not printed) | 99 | B1 |
| 1.93e-10 M (implied; unit not printed) | 100 | B2 |
| 7.37e-10 M (implied; unit not printed) | 98 | B3 |
| 1.85e-09 M (implied; unit not printed) | 99 | B4 |
| 3.19e-09 M (implied; unit not printed) | 100 | B5 |
| 2.5e-09 M (implied; unit not printed) | 99 | B6 |
| 1.77e-09 M (implied; unit not printed) | 100 | B7 |
